Data published in US20230312755A1 (ANGITIA, published 2023).

Assays:
human DKK1 [1] = biological target: T1, human DKK1 (human, UniProt O94907 32-266); experiment: cell-based or functional assay
T1 sequence (looked up): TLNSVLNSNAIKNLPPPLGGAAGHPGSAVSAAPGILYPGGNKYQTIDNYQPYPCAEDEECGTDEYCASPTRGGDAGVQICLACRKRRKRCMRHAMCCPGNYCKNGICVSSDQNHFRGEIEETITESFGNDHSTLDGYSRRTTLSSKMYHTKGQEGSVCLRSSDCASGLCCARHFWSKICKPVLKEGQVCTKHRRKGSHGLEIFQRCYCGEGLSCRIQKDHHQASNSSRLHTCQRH

human Sclerostin [2] = biological target: T2, human Sclerostin (human, UniProt Q9BQB4 24-213); experiment: cell-based or functional assay
T2 sequence: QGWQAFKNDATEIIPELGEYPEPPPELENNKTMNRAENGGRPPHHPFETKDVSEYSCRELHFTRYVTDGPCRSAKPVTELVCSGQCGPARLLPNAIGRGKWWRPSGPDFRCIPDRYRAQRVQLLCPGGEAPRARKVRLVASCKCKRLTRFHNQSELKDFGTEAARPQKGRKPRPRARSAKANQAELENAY

human DKK1 [3] = biological target: T1, human DKK1; experiment: BLI (Gator), antibody on anti-hFc biosensor, antigen as analyte; koff at LOD, KD estimated
Description: (§1) Binding kinetics and affinities of anti-Sclerostin×anti-DKK1 and anti-Sclerostin×anti-RANKL bispecific antibodies were measured with Gator (Probe Life) bio-layer interferometry (BLI). Antibodies were immobilized on an anti-hFc biosensor, using a 5 μg/ml solution. Serial dilutions of sclerostin (from 1 μg/ml), DKK1 (from 2 μg/ml), or RANKL (from 4 μg/ml) by two folds in kinetics buffer (PBS, pH 7.4, 0.05% Tween-20, 0.2% BSA) were used as the analytes. Affinity (KD) and kinetic parameters (Kₒₙ and Koff) were calculated from a global fit (1:1) of the data using the Gator software.

human Sclerostin [4] = biological target: T2, human Sclerostin; experiment: as above
Description: as §1

human DKK1 [5] = biological target: T1, human DKK1; experiment: BLI (Gator), antibody on anti-hFc biosensor, antigen as analyte, 1:1 global fit
Description: as §1

human Sclerostin [6] = biological target: T2, human Sclerostin; experiment: as above
Description: as §1

human DKK1 [7] = biological target: T1, human DKK1; experiment: BLI (Gator), hAb-2 on anti-hFc probe already holding hSclerostin, hDKK1 as second analyte
Description: The bsAb constructs (5 μg/ml) were captured to the anti-hFc HFC probe, then sequentially adding hSclerostin (2 μg/ml) and hDKK1 (2 μg/ml) in kinetics buffer (PBS, pH 7.4, 0.05% Tween-20, 0.2% BSA).

human Sclerostin [8] = biological target: T2, human Sclerostin; experiment: cell-based or functional assay; remark: listed apart in the source
[9] = biological target: T3, cynomolgus monkey Sclerostin (cynomolgus monkey, UniProt Q9BG78 24-213 (Chlorocebus aethiops entry)); experiment: BLI (Gator), antibody on anti-hFc biosensor, Sclerostin as analyte, 1:1 global fit
T3 chain: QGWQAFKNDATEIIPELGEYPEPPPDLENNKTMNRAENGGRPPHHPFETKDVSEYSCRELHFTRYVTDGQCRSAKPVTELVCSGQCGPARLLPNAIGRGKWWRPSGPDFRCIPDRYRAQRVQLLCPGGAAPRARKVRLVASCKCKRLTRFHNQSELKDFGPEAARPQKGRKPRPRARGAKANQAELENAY
Description: (§2) The binding affinity of humanized anti-Sclerostin antibodies to human and cynomolgus monkey Sclerostin were determined with bio-layer interferometry using a Gator instrument (Probe Life). Antibodies were immobilized on an anti-hFc biosensor, using a […]. Serial dilutions of human Sclerostin and cynomolgus monkey Sclerostin from 4 μg/ml by two folds in kinetics buffer (PBS, pH 7.4, 0.05% Tween-20, 0.2% BSA, 10 μM biotin) were used as the analytes. Affinity (KD) and kinetic parameters (Kₒₙ and Koff) were calculated from a global fit (1:1) of the data using the Gator software.

human Sclerostin [10] = biological target: T2, human Sclerostin; experiment: as above
Description: as §2

B1: BAP0061 (bispecific antibody, human IgG4 S228P, kappa)
heavy 1: EVQLVQSGAEVKKPGASVKVSCKASGYTFTDYEIHWVRQAPGKGLEWMGAIDPETGGTAYNQKFKGRVTMTTDTSTSTAYMELRSLRSDDTAVYYCYSYDYVTYWGQGTTVTVSSASTKGPSVFPLAPCSRSTSESTAALGCLVKDYFPEPVTVSWNSGALTSGVHTFPAVLQSSGLYSLSSVVTVPSSSLGTKTYTCNVDHKPSNTKVDKRVESKYGPPCPPCPAPEFLGGPSVFLFPPKPKDTLMISRTPEVTCVVVDVSQEDPEVQFNWYVDGVEVHNAKTKPREEQFNSTYRVVSVLTVLHQDWLNGKEYKCKVSNKGLPSSIEKTISKAKGQPREPQVYTLPPSQEEMTKNQVSLSCAVKGFYPSDIAVEWESNGQPENNYKTTPPVLDSDGSFFLVSRLTVDKSRWQEGNVFSCSVMHEALHNRFTQKSLSLSLGK
light 1: DIQMTQSPSSLSASVGDRVTITCRSSQSLLYSDGRTYLNWYQQKPGKSPKRLIYLVSKLDSGVPDRFSGSGSGTDFTLTISSLQPEDFATYYCWQGTHLPHTFGGGTKVEIKRTVAAPSVFIFPPSDEQLKSGTASVVCLLNNFYPREAKVQWKVDNALQSGNSQESVTEQDSKDSTYSLSSTLTLSKADYEKHKVYACEVTHQGLSSPVTKSFNRGEC
heavy 2: not shown
light 2: DIRMTQSPFSLSASVGDRVTITCLASEDIYSDLAWYQQKPAKAPKLFIYNANSLQNGVPSRFSGSGSGTDYTLTISSLQPEDFATYYCQQYNNYPPTFGGGTKVEIKRTVAAPSVFICPPSDEQLKSGTASVVCLLNNFYPREAKVQWKVDNALQSGNSQESVTEQDSKDSTYSLSSTLTLSKADYEKHKVYACEVTHQGLSSPVTKSFNRGES
notes: Asymmetric knob-into-hole full length antibody: first Fab (hAb-2) recognizes Sclerostin, second Fab (11H10) recognizes DKK1
EC50, DKK1 neutralization activity in HEK293/TCF/LEF/Wnt1 reporter gene assay (human DKK1 [1]): 41.4 nM
EC50, Sclerostin neutralization activity in HEK293/TCF/LEF/Wnt1 reporter gene assay (human Sclerostin [2]): 63.8 nM
Kd (human DKK1 [3]): ~0.01 nM
Kd (human Sclerostin [4]): ~0.01 nM
kon (human DKK1 [5]): 330000 M⁻¹ s⁻¹
kon (human Sclerostin [6]): 2.62e+06 M⁻¹ s⁻¹

B2: BAP0063 (bispecific antibody, human IgG4 S228P, kappa)
heavy 1: EVQLVQSGAEVKKPGASVKVSCKASGYTFTDYEIHWVRQAPGKGLEWMGAIDPETGGTAYNQKFKGRVTMTTDTSTSTAYMELRSLRSDDTAVYYCYSYDYVTYWGQGTTVTVSSASTKGPSVFPLAPCSRSTSESTAALGCLVKDYFPEPVTVSWNSGALTSGVHTFPAVLQSSGLYSLSSVVTVPSSSLGTKTYTCNVDHKPSNTKVDKRVESKYGPPCPPCPAPEFLGGPSVFLFPPKPKDTLMISRTPEVTCVVVDVSQEDPEVQFNWYVDGVEVHNAKTKPREEQFNSTYRVVSVLTVLHQDWLNGKEYKCKVSNKGLPSSIEKTISKAKGQPREPQVYTLPPSQEEMTKNQVSLSCAVKGFYPSDIAVEWESNGQPENNYKTTPPVLDSDGSFFLVSRLTVDKSRWQEGNVFSCSVMHEALHNRFTQKSLSLSLGK
light 1: DIQMTQSPSSLSASVGDRVTITCRSSQSLLYSDGRTYLNWYQQKPGKSPKRLIYLVSKLDSGVPDRFSGSGSGTDFTLTISSLQPEDFATYYCWQGTHLPHTFGGGTKVEIKRTVAAPSVFIFPPSDEQLKSGTASVVCLLNNFYPREAKVQWKVDNALQSGNSQESVTEQDSKDSTYSLSSTLTLSKADYEKHKVYACEVTHQGLSSPVTKSFNRGEC
heavy 2: not shown
light 2: DIRMTQSPFSLSASVGDRVTITCLASEDIYSDLAWYQQKPAKAPKLFIYNANSLQNGVPSRFSGSGSGTDYTLTISSLQPEDFATYYCQQYNNYPPTFGGGTKVEIKRTVAAPSVFIFPPSDEQLKSGTASVVCLLNNFYPREAKVQWKVDNALQSGNSCESVTEQDSKDSTYSLSSTLTLSKADYEKHKVYACEVTHQGLSSPVTKSFNRGES
notes: as for B1
EC50, DKK1 neutralization activity in HEK293/TCF/LEF/Wnt1 reporter gene assay (human DKK1 [1]): 44.7 nM
EC50, Sclerostin neutralization activity in HEK293/TCF/LEF/Wnt1 reporter gene assay (human Sclerostin [2]): 65.4 nM
Kd (human DKK1 [3]): ~0.01 nM
Kd (human Sclerostin [4]): ~0.01 nM
kon (human DKK1 [5]): 129000 M⁻¹ s⁻¹
kon (human Sclerostin [6]): 2.59e+06 M⁻¹ s⁻¹

B3: hAb-2 (antibody, V domains shown)
VH: EVQLVQSGAEVKKPGASVKVSCKASGYTFTDYEIHWVRQAPGKGLEWMGAIDPETGGTAYNQKFKGRVTMTTDTSTSTAYMELRSLRSDDTAVYYCYSYDYVTYWGQGTTVTVSS
VL: DIQMTQSPSSLSASVGDRVTITCRSSQSLLYSDGRTYLNWYQQKPGKSPKRLIYLVSKLDSGVPDRFSGSGSGTDFTLTISSLQPEDFATYYCWQGTHLPHTFGGGTKVEIK
notes: Humanized 93B1B7; also called humanized anti-Sclerostin antibody hAb-2
binding result (human DKK1 [7]): no binding (tested: 2 µg/ml)
EC50, Sclerostin-neutralisation activity in HEK293/TCF/LEF/Wnt1 cells (luciferase reporter) (human Sclerostin [8]): 14.9 nM
Kd [9]: 0.055 nM
koff [9]: 8.06e-05 s⁻¹
kon [9]: 1.54e+06 M⁻¹ s⁻¹
Kd (human Sclerostin [10]): 0.24 nM
koff (human Sclerostin [10]): 0.0002 s⁻¹
kon (human Sclerostin [10]): 780000 M⁻¹ s⁻¹
